Measured values taken from patent publication US20230167174A1.

What was measured:
[1] = target: cyTREM2 ECD (19-174)-APP-Avi (cynomolgus); assay: SET
[2] = target: T1, hTREM2 ECD (19-174)-hFc (human) (UniProt Q9NZC2); assay: SET
T1 sequence (chain, biotinylated where printed -bio): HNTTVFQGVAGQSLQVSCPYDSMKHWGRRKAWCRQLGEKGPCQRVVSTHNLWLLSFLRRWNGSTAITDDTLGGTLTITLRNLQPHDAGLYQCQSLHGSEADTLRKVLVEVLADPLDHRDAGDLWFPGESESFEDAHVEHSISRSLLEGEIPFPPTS

[3] = target: T2, human TREM2 endogenously expressed (hM2A macrophages, THP1-B5 cells, iPS derived microglia) (human) (UniProt Q9NZC2); assay: FACS, hM2A
T2 sequence (looked up): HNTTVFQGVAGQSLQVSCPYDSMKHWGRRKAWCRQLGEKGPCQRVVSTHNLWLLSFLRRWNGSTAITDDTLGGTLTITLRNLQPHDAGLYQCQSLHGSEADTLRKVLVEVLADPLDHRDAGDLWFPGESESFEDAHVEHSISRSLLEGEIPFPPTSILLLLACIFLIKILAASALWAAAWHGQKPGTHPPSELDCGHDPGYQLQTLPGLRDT

[4] = target: T1, hTREM2 ECD (19-174)-hFc (human); assay: SET screening
[5] = target: T3, human TREM2 on CHO-hDAP12-hTREM2 cells (human) (UniProt Q9NZC2); assay: FACS, CHO-hTREM2
T3 sequence: T2 sequence (looked up)

[6] = target: cynomolgus TREM2 on CHO-hDAP12-cyTREM2 cells (cynomolgus); assay: FACS, CHO-cyTREM2
[7] = target: T2, human TREM2 endogenously expressed (hM2A macrophages, THP1-B5 cells, iPS derived microglia) (human); assay: FACS, hM2A, donor 1
[8] = target: T2, human TREM2 endogenously expressed (hM2A macrophages, THP1-B5 cells, iPS derived microglia) (human); assay: FACS, hM2A, donor 2
[9] = target: T2, human TREM2 endogenously expressed (hM2A macrophages, THP1-B5 cells, iPS derived microglia) (human); assay: FACS, hM2A, donor 3
[10] = target: T2, human TREM2 endogenously expressed (hM2A macrophages, THP1-B5 cells, iPS derived microglia) (human); assay: FACS, hM2A, donor 4
[11] = target: T2, human TREM2 endogenously expressed (hM2A macrophages, THP1-B5 cells, iPS derived microglia) (human); assay: cell-based or functional assay
[12] = target: T3, human TREM2 on CHO-hDAP12-hTREM2 cells (human); assay: cell-based or functional assay
[13] = target: cyTREM2 ECD (19-174)-APP-Avi (cynomolgus); assay: SPR, label free kinetics
[14] = target: T1, hTREM2 ECD (19-174)-hFc (human); assay: SPR, label free kinetics
[15] = target: cyTREM2 ECD (19-174)-hFc (cynomolgus); assay: recombinant protein binding
[16] = target: T1, hTREM2 ECD (19-174)-hFc (human); assay: recombinant protein binding
[17] = target: T4, hTREM2 IgSF-hTREM1 stalk-hFc (human) (UniProt Q9NZC2); assay: recombinant protein binding
T4 sequence (looked up): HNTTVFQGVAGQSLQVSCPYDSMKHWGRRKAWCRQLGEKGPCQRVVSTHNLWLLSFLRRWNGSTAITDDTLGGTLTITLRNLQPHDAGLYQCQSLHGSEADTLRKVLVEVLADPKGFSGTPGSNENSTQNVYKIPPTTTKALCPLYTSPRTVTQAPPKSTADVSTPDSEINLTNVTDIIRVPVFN

[18] = target: T2, human TREM2 endogenously expressed (hM2A macrophages, THP1-B5 cells, iPS derived microglia) (human); assay: FACS, hM2A, median of 4 donors

Chain of cynomolgus TREM2 on CHO-hDAP12-cyTREM2 cells (cynomolgus) (chain, as listed by the source): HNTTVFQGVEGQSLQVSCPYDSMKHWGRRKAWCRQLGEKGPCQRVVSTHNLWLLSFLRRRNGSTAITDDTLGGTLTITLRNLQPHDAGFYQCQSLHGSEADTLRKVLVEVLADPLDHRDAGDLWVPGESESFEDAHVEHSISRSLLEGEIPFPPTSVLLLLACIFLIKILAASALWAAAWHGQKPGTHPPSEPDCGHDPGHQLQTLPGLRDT

Kd [1]: 4 pM
Kd [2]: 3 pM
EC50 [3]: < 2000 pM
Kd [4]: < 600 pM
EC50 [5]: 160 pM
EC50 [6]: 650 pM
EC50 [7]: 730 pM
EC50 [8]: 540 pM
EC50 [9]: 540 pM
EC50 [10]: 640 pM
Fold TREM2 cell surface increase compared to isotype (hM2A, 100 nM) [11]: 5.1 fold
TREM2 activation (fold in RGA) [11]: 1.3 fold
lowest active concentration, phagocytosis in hM2A [11]: 1 nM
Internalization compared to parental after 6 h [12]: 0.7 fold
Internalization; fold over background after 6 h [12]: 33.3 fold
Kd [13]: 4 pM
Kd [14]: 3 pM
S/BG [15]: > 5
S/BG [16]: > 5
S/BG [17]: > 20
EC50 [18]: 590 pM
B1: MOR044746 (antibody, from a related filing, V domains shown)
VH: QVQLQQSGPGLVKPSQTLSLTCAISGDSVSSSSAAWNWIRQSPSRGLEWLGHIGYRSKWYNEYAVSVKSRITINPDTSKNQFSLQLNSVTPEDTAVYYCARGMYGSVPYKEGYYFDIWGQGTLVTVSS
VL: DIQMTQSPSSLSASVGDRVTITCRASQGISSDLNWYQQKPGKAPKLLIYAASNLQSGVPSRFSGSGSGTDFTLTISSLQPEDFATYYCQQYTDESMTFGQGTKVEIK
